Results as given in PMC6642535.

Target: Flag-tagged wild-type GAPDH (human) (UniProt P04406)
Assay: native gel or EMSA; lysates of stable PANC-1 lines (GFP/wild-type GAPDH, GFP-PRMT3/wild-type GAPDH, GFP-PRMT3/R248K-GAPDH) on 10% native gel; tetrameric form

Flag-tagged wild-type GAPDH, P04406 1-335 (enzyme; other documents disagree on this pair), sequence (P04406 whole entry): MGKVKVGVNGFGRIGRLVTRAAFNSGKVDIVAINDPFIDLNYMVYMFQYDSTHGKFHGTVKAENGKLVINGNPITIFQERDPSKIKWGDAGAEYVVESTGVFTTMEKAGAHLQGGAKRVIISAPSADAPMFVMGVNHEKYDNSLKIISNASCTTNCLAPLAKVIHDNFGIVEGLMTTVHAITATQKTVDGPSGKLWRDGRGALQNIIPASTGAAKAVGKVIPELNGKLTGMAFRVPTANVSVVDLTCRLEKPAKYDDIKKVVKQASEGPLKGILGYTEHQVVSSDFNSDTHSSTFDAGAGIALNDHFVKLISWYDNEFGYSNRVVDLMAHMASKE

Work on “Flag-tagged wild-type GAPDH, P04406 1-335 (enzyme; other documents disagree on this pair)” yielded a stoichiometry N of 4.
